Experimental data taken from article PMC11711466, “Reconstitution of human DNA licensing and the structural and functional analysis of key intermediates”.

Experiments:
hMCM2-7 = hMCM2-7 (human, UniProt P49736;P25205;P33991;P33992;Q14566;P33993 1-904;1-808;1-863;1-734;1-821;1-719); test: negative stain EM, in-solution loading; double hexamers; loaded by ORC1-5, ORC6, CDC6, CDT1deltaN, ATP; more than without ORC6; 25 mM HEPES-KOH pH 7.5, 250 mM KGlu, 1 mM DTT, 4 mM MgOAc, 0.1% Triton X-100, 1 mM ATP or ATPgS, 30 C; high-salt wash adds 300 mM NaCl; in-solution: HEPES-NaOH, 0.05% Triton X-100; settings: protein: recombinant; tags: N-terminal Twin-Strep MCM2; N-terminal 8xHis MCM4; chain copies: 2;2;2;2;2;2; blunt
hORC1-5;hCDC6 = hORC1-5;hCDC6 (human;human, UniProt Q13415;Q13416;Q9UBD5;O43929;O43913;Q99741 1-861;1-577;1-711;1-436;1-435;1-560, |); test: pull-down via Strep-hORC1; CDC6 retained with ORC1-5 only with DNA; 25 mM HEPES-KOH pH 7.5, 250 mM KGlu, 1 mM DTT, 4 mM MgOAc, 0.1% Triton X-100, 1 mM ATP or ATPgS, 30 C; high-salt wash adds 300 mM NaCl; in-solution: HEPES-NaOH, 0.05% Triton X-100; settings: protein: recombinant;recombinant; tags: N-terminal Twin-Strep on ORC1 (removed with SUMOstar protease in some preps);GST, cleaved; copies: 1;1;1;1;1;1; blunt

Binder | binding result (hMCM2-7) | binding result (hORC1-5;hCDC6)
158 bp lamin B2 (dsDNA) DNA 1: GCCTGCCGCGCATGCGCACGAGGCACCCGGCGCGTCTATACAGCGTGTTGCCGCCGGGGCGGAGCCCGGTCGCATCACGTGACGAAGAGTCAGCTTGTGCAACAGCGTCGGAGGCTCACTAGAAAAAAAAGGGCAGGGTCCCATGCATCGCCTGGGTC DNA 2: GACCCAGGCGATGCATGGGACCCTGCCCTTTTTTTTCTAGTGAGCCTCCGACGCTGTTGCACAAGCTGACTCTTCGTCACGTGATGCGACCGGGCTCCGCCCCGGCGGCAACACGCTGTATAGACGCGCCGGGTGCCTCGTGCGCATGCGCGGCAGGC | binds | –
90 bp ARS1 (dsDNA) DNA 1: GTTATTTTACAGATTTTATGTTTAGATCTTTTATGCTTGCTTTTCAAAAGGCCTGCAGGCAAGTGCACAAACAATACTTAAATAAATACTA DNA 2: TAGTATTTATTTAAGTATTGTTTGTGCACTTGCCTGCAGGCCTTTTGAAAAGCAAGCATAAAAGATCTAAACATAAAATCTGTAAAATAAC | – | binds
